Results reported in a protein production outcome set (Wang et al. 2014).

Assay: label from the status in PepcDB records
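Further: failed if final PepcDB status was selected cloned or expressed and not failed if soluble or beyond.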

In the case of “MRFFVFLKTLQSRSFCIFQQSFLLFFTSFFIIFVSNLCFISRGYGQNPPSLPAEPPSPQLLLPLDDLIPNDPSSAPAEPNSDSAATILEDFDAVHQSYAQRTEQRKEAEILRLLKELKFCADVEKARKISQQLQRLWSQSGSETIDLLMLWAENAINADNYGLALDYIDNALALLPTYAEGWIRRAWVHIQLSDFKLAMLDLNHALKLEPRNYIAFFELGITMEATERPKLALKAYETALEYYPQMQKVQKRIEELLDKQSPQAL”, the protein production is reported as “failed”.

With “MDEKPAITKIISGGQTGADRAALDFAIKHHIPYGGWVPKGRLAEGGRVPETYQLQEMPTSDYSKRTEKNVLDSDGTLIISHGILKGGSALTEFFAEQYKKPCLHIDLDRISIEDAATLINSWTVSHHIQVLNIAGPRAGKDPEIYQATMDLLEVFLA” the protein production was “not failed”.

For “MAEKQYDFTHVPKRQGNSIKWGVLKEKELPMWIAEMDFKIAPEIMASMEEKLKVAAFGYESVPAEYYKAVADWEEIEHRARPKEDWCVFASGVVPAISAMVRQFTSPGDQILVQEPVYNMFYSVIEGNGRRVISSDLIYENSKYSVNWADLEEKLATPSVRMMVFCNPHNPIGYAWSEEEVKRIAELCAKHQVLLISDEIHGDLVLTDEDITPAFTVDWDAKNWVVSLISPSKTFNLAALHAACAIIPNPDLRARAEESFFLAGIGEPNLLAIPAAIAAYEEGHDWLRELKQVLRDNFAYAREFLAKEVPEVKVLDSNASYLAWVDISALGMNAEDFCKYLREKTGLIISAGNGYRGNGHEFVRINLACPKELVIDGMQRLKQGVLNLNN”, the protein production was “not failed”.

With “MEAGFVSVGDVTFRDLEDEAIVELVRKGNTDALEYLIHKYKNFVRAKSRSYFLVGADREDIVQEGMIGLFKAIRDYKEDKLSSFKAFAELCITRQIITAIKTATRQKHIPLNSYVSLDKPIYDEESDRTLLDVISEAKVTDPEEMIISQEEYTDIESKISELLSDLERKVLSLYLDGRSYQEISEQLNRHVKSIDNALQRVKRKLERYMEMRESTTLNS” the protein production was “failed”.

With “MVKQCSPAHNIFERVSKCYVEKQQPHDVSIPNIRLTVSATGLAFGSVHQANANQNQIACFYFSCNFSSKSNHHQSQAIVREEIQKNLRPVRIVGHQSMASSWRRSIGNVRSFIGNSMGGLRGGQSAASWVVAGTIAYFLWIKPEQDLKKEQEARAALAMADTNQYVEKRKPIADPQVTGLIYGNKNGTDKSED” the protein production was “failed”.

In the case of “AQKLSATSRILSSSRGPAPDDIADFFGTDRAAQHITLRRLRLGNGRPYAIDNGWYNSEFAPDLLENDVYNSVYSILDRVYGVPVTQAEQTVTAVAADEDTARLLDVTPGAPLLRILRQSLSGDKPVEWCVSLYRTDRYSLKTLVTRSEDL”, the protein production is reported as “not failed”.

For “MLKGFNSGDISYEILEKKKENIEQQALERFLEEKSEKENKHIPKEDMLFNSKDSIAMERIVGKNDLFPISYLQIGLNISKSVCRISIRDSRGVVVGYGTGFLVAPNIILTNNHVINSYEVASNSIAEFNYQDDENFMPCPTYNFRLNPQTFFITNVKLDFTLVALNENVTNQKHLEDFGYLKMTQKEGTILPEEYVSIIQHPKGGPKSVTLRENKVSGLKENFIHYLTDTEPGSSGSPVFNDQWTLVALHHSGVPNPEIKDEWIANEGILISAIVNYLAKKYSSLKENEQAIIKEIVPDIELPKENNITSSVDDEPLGYNPLFLGKDYEIPLPKLSKEMEKDTAKTEDGNYVLDYIHFSIVMKKSRGLAYFTAVNIDGTDAVKIRRTADNWKFDPRISQNYQYGDEVYVNNDLDRGHLVRRTDPNWGKNALKANEDTFYFTNSTPQHKNLNQKTWVELEDYIFRNAVLNQFKVSVFTGPVFREDDMIYRQKYQIPAEFWKVVVMLKEDGNISATAYLQTQKNMIENLEFAYGEYKTYQVPVRNIEKLTGLDFGNLSKFDPMANIEATGIVITGPESIKF”, the protein production was “failed”.

In the case of “MEDEHSRQAYVDQLGLLEEGADEVFEEILAAATSYFQTPIALISILDHQRQWFRASIGLDIRQTPRRDSFCAYAILGKGVFEVADATLDPRFRDNPYVQGEPRIRFYAGAPLATAEGLNLGSLCVIDREPRGPLAERDVAMLEHFARLVMARIHTLRSTNYIDEPTGLYNRLRLQEDVSLRLQRDGALTVIAADLLPLALLNTIIRTLGYPFSNDLMLEARDRIRAELPDFTLYKISPTRFGLLLPRQQQEETESVCLRLLRAFESPVVCRGIPIKANVGLGVLPLADDTLDGDQDWLRLVVSAADDARDRGVGWARYNPPLDQAQQRAFTLLTSLSQAIGTEEGFHLVYQPKIDLPTGRCTGVEALLRWRHPQLGFVSPAEFVPLAEKTALMRPLSDWVLRHAMAQLAQWNARNIPLRLAINVSASDMEDSSFLEEAVRLAKTYDIDLSALELEFTESVLIRDASAVGSVLLRARELGMGIAVDDFGTGYSNWTYLRDLPITAIKLDQSFTRDLAGSPKAQSVTQAVIGLASQLGYRVVAEGIETHDTFHLLQAWGCHEGQGYLIAQPMLPEQLEDWLRRLEHHHHHH”, the protein production is reported as “failed”.

In the case of “MASRFSRVVLVLIDALRFDFAQPQHSHVPREPPVSLPFLGKLSSLQRILEIQPHHARLYRSQVDPPTTTMQRLKALTTGSLPTFIDAGSNFASHAIVEDNLIKQLTSAGRRVVFMGDDTWKDLFPGAFSKAFFFPSFNVRDLDTVDNGILEHLYPTMDSGEWDVLIAHFLGVDHCGHKHGPHHPEMAKKLSQMDQVIQGLVERLENDTLLVVAGDHGMTTNGDHGGDSELEVSAALFLYSPTAVFPSTPPEEPEVIPQVSLVPTLALLLGLPIPFGNIGEVMAELFSGGEDSQPHSSALAQASALHLNAQQVSRFLHTYSAATQDLQAKELHQLQNLFSKASADYQWLLQSPRAEATLPTVIAELQQFLRGARAMCIESWARFSLVRMAGGTALLAASCFICLLASQWAISPGFPFCPLLLTPVAWGLVGAIAYAGLLGTIELKLDLVLLGAVAAVSSFLPFLWKAWAGWGSKRPLATLFPIPGPVLLLLLFRLAVFFSDSFVVAEARATPFLLGSFILLLVVQLHWEGQLLPPKLLTMPRLGTSATTNPPRHNGAYALRLGIGLLLCTRLAGLFHRCPEETPVCHSSPWLSPLASMVGGRAKNLWYGACVAALVALLAAVRLWLRRYGNLKSPEPPMLFVRWGLPLMALGTAAYWALASGADEAPPRLRVLVSGASMVLPRAVAGLAASGLALLLWKPVTVLVKAGAGAPRTRTVLTPFSGPPTSQADLDYVVPQIYRHMQEEFRGRLERTKSQGPLTVAAYQLGSVYSAAMVTALTLLAFPLLLLHAERISLVFLLLFLQSFLLLHLLAAGIPVTTPGPFTVPWQAVSAWALMATQTFYSTGHQPVFPAIHWHAAFVGFPEGHGSCTWLPALLVGANTFASHLLFAVGCPLLLLWPFLCESQGLRKRQQPPGNEADARVRPEEEEEPLMEMRLRDAPQHFYAALLQLGLKYLFILGIQILACALAASILRRHLMVWKVFAPKFIFEAVGFIVSSVGLLLGIALVMRVDGAVSSWFRQLFLAQQR”, the protein production is reported as “failed”.

For “MAKTLGLHILADLYGVDADKIDRVEDIRELLEGAVKYANLTKISSHYYQFQPHGATGVVLLAESHISIHTWPEHGLATVDVYTCGDPSKAYRAMDYIITQLNPKRIDKQVHERGIVEEESNQSEAEKLRSILLQV”, the protein production was “not failed”.

In the case of “MTKLALFVRLEAKPGQEAALADFLASALPLANAESGTTAWFALKFGPSTFGVFDAFADEAGRQAHLNGQIAAALMANAATLLSSPPNIEKVELLAAKLPA”, the protein production is reported as “not failed”.

In the case of “MVSMLTRIRRQIKRVIEPLAKTLAQLKVSANFITMLGLIFAIVYYFEIMRSNTTLGIIFLVFSALMDAIDGEVARVSKTVSPLGSFLDSTLDRIEDILYISAFIFLGFSSYLVAIAVGLSLTISYIRAKAESLGLKMEGRGIIERGERIIFVFVILLLYIIVSKQVSLYLFYLFMLLTAITVIQRFYAVYSLLRK”, the protein production is reported as “failed”.

In the case of “MSDSLRIIFAGTPDFAARHLGALLSSQHKIVGVFTQPDRPAGRGNKLTPSPVKILAEHHGIPVFQPKSLRPEENQHLVADLNADIMVVVAYGLILPAAVLAMPRLGCINVHGSLLPRWRGAAPIQRSVWAGDEKTGITIMQMDIGLDTGAMLHKIECAIQPEDTSATLYDKLAQLGPQGLLITLQQLAAGTALAEVQNETQATYAEKLSKEEAKLDWTLSATQLERCIRAFNPWPVSYFIVDEQPIKVWQAQVLPAGEDAEPGTIIHADKHGIQVATADGVLNITQLQPAGKKAMSAADLLNSRREWFIPGSQLV”, the protein production is reported as “not failed”.

For “MASGQGPGPPRQECGEPALPSASEEQVAQDTEEVFRSYVFYRHQQEQEAEGVAAPADPEMVTLPLQPSSTMGQVGRQLAIIGDDINRRYDSEFQTMLQHLQPTAENAYEYFTKIATSLFESGINWGRVVALLGFGYRLALHVYQHGLTGFLGQVTRFVVDFMLHHCIARWIAQRGGWVAALNLGNGPILNVLVVLGVVLLGQFVVRRFFKS”, the protein production was “not failed”.

In the case of “MTAADPGTRIVRWALVAGAVAGLLAVMAGAFGAHGLRHVVSERGLEVFQTAVSYQMYHALALVAVSLMPALGLSGNLLTLACGFWLAGMMLFSGSLYLLVLTGIHWLGPVTPVGGVCFMVGWVLLIVAALKK”, the protein production is reported as “failed”.

With “MITIDPEYFEILKEFGAERVVRCYQCGTCTGICPVSTTDASFPRKPVLLSRFGVGEVIENFEEAWLCLSCNLCTEFCPRDVKPSETMLAIKRVLVENGKTPPYIRDFFQNIMKQKNPWGIGKFKREDWVKKSDVEVPKVKDNPEYEWLWFVGCAHAFENRNINVTLKMARILSDLGINFATLGREEGCCGNDVRRAGEEGLFEVLMEENIKTFGKYGVQRLFTHSPHCFNAFKNWYEGYEVKLFLEILRDAIKSGKLELKNKLDLTVTYHDSCYLGRYNGIYDLPREVLKLIPGVELVEMKSNRRMSLCCGGGAGNIVGDYPGEIQPARVRAQEAAETGANVLAVACPFCLLMLEDGVKTEKLDKQLVVKDIVELVYEAAYGEE” the protein production was “failed”.

In the case of “MIIRPIIKNDDQAVAQLIRQSLRAYDLDKPDTAYSDPHLDHLTSYYEKIEKSGFFVIEERDEIIGCGGFGPLKNLIAEMQKVYIAERFRGKGLATDLVKMIEVEARKIGYRQLYLETASTLSRATAVYKHMGYCALSQPIANDQGHTAMDIWMIKDL”, the protein production is reported as “failed”.

In the case of “MAWYEGAFFYQIFPDRFFRAGPPGRPAPAGPFEPWEAPPTLRGFKGGTLWGVAEKLPYLLDLGVEAIYLNPVFASTANHRYHTVDYFQVDPILGGNEALRHLLEVAHAHGVRVILDGVFNHTGRGFFAFQHLMENGEQSPYRDWYHVKGFPLKAYTAHPNYEAWWGNPELPKLKVETPAVREYLLAVAEHWIRFGVDGWRLDVPNEIPDPTFWREFRQRVKGANPEAYIVGEIWEEADFWLQGDMFDAVMNYPLARAVLGFVGGEALDRDLAAQTGLGRIEPLQALAFSHRLEDLFGRYRPEVVRAQMNLLTSHDTPRLLSLMRGSVERARLALALLFLLPGNPTVYYGEEVGMAGGKDPENRGGMVWEEARWQKDLRETVKRLARLRKEHPALRTAPYLRIYAQDGHLAFARGPYLAVVNASPHPFRQDFPLHGVFPRGGRAVDLLSGEVCTPQGGRLCGPVLPPFSLALWREA”, the protein production is reported as “not failed”.

In the case of “MRKLDRVDMQLVKILSENSRLTYRELADILNTTRQRIARRIDKLKKLGIIRKFTIIPDIDKLGYMYAIVLIKSKVPSDADKVISEISDIEYVKSVEKGVGRYNIIVRLLLPKDIKDAENLISEFLQRIKNAENVEVILISEVRKFEII”, the protein production is reported as “not failed”.

In the case of “MELSQRQERIIEIVKTKGPITGEQIADKLNLTRATLRPDLAILTMSGFLEARPRVGYYYSGKSKGKFFNEKLRQFEVKDYMSQPVVLRENTTVYDAICTIFLEDVSTLFIINEDNDFVGVCSRKDLLRASMIGADIHTVPISVNMTRMPNVTYLEESELVIYAADRMIEKEIDSIPIVRKKDNQKYEVIGRISKTTIAKLLVALYKE”, the protein production is reported as “not failed”.

In the case of “RNVWVVAELDEQGVSEASLQMLTPARRIADKLGESVVGVIAGPPGSSQLAVEMVERGADEVIVVEHERLSEYYPDVVGSVIVELSLKYKPSVILFAATARGREMAPYVANTLKTGITADCTDFDVDPKTRDVLLIRPPFSAIMLAYIRTPFRRPQIGTARPNVFPLPERQPGRQGRIVREEVEPPEPMARLVNRV”, the protein production is reported as “not failed”.
